How the values were obtained:
[1] = In vitro fluorescence assays of SAH biosensors (turn-on, ligand selectivity); assay type: biochemical
Procedure: Other conditions, including temperature, concentrations of MgCl2, DFHBI, ligand or RNA, were varied in different experiments and are indicated in the figures. The RNA was renatured in buffer at 70° C. for 3 min and cooled to ambient temperature for 5 min prior to addition to the reaction solution. DFHBI was added to a solution containing buffer and ligand, and then RNA was added at the end before fluorescence measurement. Binding reactions were performed in 100 μL volumes and were incubated at the indicated temperature in a Corning Costar 3915 96-well black plate until equilibrium was reached, which in some cases takes 30 to 60 minutes. The fluorescence emission was measured using a Molecular Devices SpectraMax Paradigm Multi-Mode detection platform plate reader (Sunnyvale, Calif.) with the following instrument parameters: 448 nm excitation, 506 nm emission.

[2] = biological target: T1, protein lysine MTase SET7/9 (Homo sapiens, UniProt Q8WTS6); experiment: Protein MTase SET7/9 activity assay with SAH biosensor; assay type: biochemical
T1 construct: purchased New England Biolabs Inc (Ipswich, Mass.)
T1 sequence (Q8WTS6 1-366): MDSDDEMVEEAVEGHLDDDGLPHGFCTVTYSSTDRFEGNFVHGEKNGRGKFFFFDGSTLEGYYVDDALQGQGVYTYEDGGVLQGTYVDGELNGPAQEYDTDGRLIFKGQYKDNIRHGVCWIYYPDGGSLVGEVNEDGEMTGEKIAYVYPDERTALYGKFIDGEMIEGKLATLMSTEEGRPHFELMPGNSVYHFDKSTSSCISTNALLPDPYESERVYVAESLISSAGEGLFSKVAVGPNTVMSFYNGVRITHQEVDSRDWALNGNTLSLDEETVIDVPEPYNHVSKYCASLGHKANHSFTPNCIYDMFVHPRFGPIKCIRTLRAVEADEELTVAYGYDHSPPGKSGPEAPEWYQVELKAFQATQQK
Procedure: To initiate the enzyme reaction, 5 μL of H3 peptide substrate (N′-[…]-LAGGKKC-C′) (SEQ ID NO:132) was added to 5 μL of 2×enzyme reaction solution containing SET7/9, SAM, and NEB HMT buffer. Generally, final concentrations are 50 μM H3 peptide, 0.1 U/μL SET7/9, 25 μM SAM, and lx NEB HMT buffer (50 mM Tris, pH 9.0, 5 mM MgCl2, and 4 mM DTT). The reaction solution was incubated at 37° C. for 2 hours to allow the enzyme reaction to proceed.
To initiate the fluorescent biosensor reaction, 10 μL of the enzyme reaction was added to 90 μL of biosensor reaction solution containing renatured RNA, DFHBI, and buffer. […] For the SAH control, SAH was added to a final concentration of 0.5 μM in place of the enzyme reaction. In vitro fluorescence assays were conducted as described above.

[3] = biological target: T2, SET7/9 (Homo sapiens, UniProt Q8WTS6); experiment: High-throughput screening (HTS) assay of SET7/9 activity and inhibition, Z′ score; assay type: biochemical; conditions: 384-well plate, 16 replicates
T2 construct: purchased New England Biolabs Inc (Ipswich, Mass.)
T2 sequence (Q8WTS6 1-366): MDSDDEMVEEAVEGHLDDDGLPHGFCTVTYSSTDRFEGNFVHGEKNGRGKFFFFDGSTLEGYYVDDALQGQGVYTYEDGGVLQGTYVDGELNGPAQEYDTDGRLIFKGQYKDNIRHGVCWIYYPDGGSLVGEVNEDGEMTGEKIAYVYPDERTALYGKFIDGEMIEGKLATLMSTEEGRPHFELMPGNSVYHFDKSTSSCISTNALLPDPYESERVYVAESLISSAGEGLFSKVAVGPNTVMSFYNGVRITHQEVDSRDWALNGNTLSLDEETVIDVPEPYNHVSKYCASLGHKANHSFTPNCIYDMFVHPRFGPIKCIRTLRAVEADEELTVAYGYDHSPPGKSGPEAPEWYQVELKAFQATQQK
Procedure: For HTS experiments, samples were dispensed into a Grenier 781077 384-well flat bottom black plate using an Eppendorf Repeater […] pipetter to dispense reaction components. Z' scores were calculated from 16 well replicates in the 384-well plate. For the HTS SET7/9 activity assay, 3 μL of H3 peptide or water was added to 9 μL of reaction solution containing SET7/9 MTase, SAM, and NEB HMT Reaction Buffer in each well. Final concentrations are: 0.25 U/10 μL SET7/9, 25 μM SAM, 50 μM H3 peptide and 1×NEB HMT Reaction Buffer (50 mM Tris, pH 9.0, 5 mM MgCl2, and 4 mM DTT). After 30 min incubation at 37° C., to initiate the fluorescent biosensor reaction, 18 μL of biosensor reaction solution containing renatured RNA, DFHBI, and buffer was added to each well. […] In vitro fluorescence assays were conducted as described above. For the HTS SET7/9 inhibition assay, 4.5 μL of sinefungin or water was added to 8 μL of reaction solution containing SET7/9 MTase, and NEB HMT Reaction Buffer in each well. After 15 minutes incubation at 37° C., methylation reaction was initiated by adding 2.5 μL solution containing both SAM and H3 peptide. Final concentrations are: 0.25 U/10 μL SET7/9, 25 μM SAM, 50 μM H3 peptide, 300 μM sinefungin and 1×NEB HMT Reaction Buffer (50 mM Tris, pH 9.0, 5 mM MgCl2, and 4 mM DTT). After 30 min incubation at 37° C., to initiate the fluorescent biosensor reaction, 15 μL of biosensor reaction solution containing renatured RNA, DFHBI, and buffer was added to each well. […] In vitro fluorescence assays were conducted as described above.

[4] = test system: E. coli BL21* cells; experiment: In vivo fluorescence of RNA aptamers by flow cytometry; assay type: cell-based; conditions: 100 μM DFHBI
Procedure: To compare the fluorescence of Spinach2 and cpSpinach2 in live cells, pET31b plasmids encoding the RNA aptamers in a tRNA scaffold were transformed into E. coli BL21* cells. Following IPTG induction of transcription, cells were incubated with DFHBI and fluorescence was quantitated by flow cytometry. The mean cellular fluorescence was measured as a function of increasing DFHBI concentration in the media, in order to determine the optimal conditions for aptamer fluorescence. Unexpectedly, full saturation of fluorescence was not observed, even when E. coli cells were incubated in media containing up to 800 μM DFHBI (FIG. 5). However, the non-specific fluorescence signal increased when DFHBI concentration exceeded 100 μM. Thus, to balance higher fluorescence activation and lower non-specific background, a concentration of 100 μM was adopted for further experiments. Under these conditions, cellular fluorescence activation for Spinach2 and cpSpinach2 was on average 34 and 22-fold over background, respectively (FIG. 6). Thus, cpSpinach2 is a functional alternative to Spinach2. Although it currently performs slightly poorer in terms of fluorescence activation in live cells, improvements are likely possible through directed mutagenesis for higher thermal stability, improved folding efficiency and less Mg^2+ dependency. […]

[5] = test system: E. coli BL21* wild-type and ΔMTAN cells; experiment: Live cell detection of SAH accumulation, wild-type versus MTAN knockout, flow cytometry; assay type: cell-based
Procedure: A Targetron® Gene Knockout System (Sigma-Aldrich) was used to knock out the MTAN gene from E. coli BL21*, following manufacturer protocols.
Preparation of cell samples for flow cytometry was carried out by inoculating 2 mL of auto-induction media/Carb (F. Studier, Protein Expression and Purification 2005, 41, 207-234) with E. coli BL21* cells from colonies grown on an LB/Carb culture plate, containing pET31b plasmids encoding RNA aptamers. […] Cells were then grown aerobically overnight to saturation (0D600 varied from 5 to 10) and diluted to OD600˜0.01-0.05 in M9 minimal media (pH ˜6.0) with 100 μM DFHBI-1T. Cellular fluorescence was measured for 30,000 cells using a Life Technologies Attune N×T Acoustic Focusing Cytometer.

[6] = test system: E. coli cells; experiment: RNA stability in E. coli, cpSpinach2 fluorescence in M9 minimal media; assay type: cell-based; conditions: M9 minimal media without inducers, monitored for 4 h
Procedure: Fluorescence of cpSpinach2-expressing E. coli cells grown 16 hrs in auto-induction media, then pelleted and re-suspended in M9 minimal media without RNA transcription inducers.
RNA stability in E. coli: For the time-course experiment shown in FIG. 4D, E. coli cells from overnight culture (16 h post-inoculation and induction) were pelleted and re-suspended in M9 minimal media without transcriptional inducers (lactose). To analyze the stability of RNA levels under these conditions, E. coli cells expressing cpSpinach2 were processed using the same procedures and fluorescence was monitored for 4 h. Fluorescence readings remained stable for up to 3 h in M9 minimal media. Therefore, we expect that the related biosensor levels would be stable in the same time-frame, so the fluorescence change shown in FIG. 4D reflects the dynamic change in SAH levels.

B1: Aeh1-4: SAH biosensor, SEQ ID NO: 44 (nucleic acid)
chain: CGCCCCGAGGAGCGCTGCAACAGGTTGTTGAGTAGAGTGTGAGCTCCGTAACTAGTTACATCGCAAGATGTAACTGAATGAAATGGTGAAGGACGGGTCCACCTGCCAGGCTCGGGGATGGCGCCCCATCGTTCCAACGGCGCTCAGCGAAA
- fluorescence response to SAH at low magnesium ([1]; 3 mM magnesium): decreased fluorescence turn-on
- fluorescence turn-on ([1]; 37° C., 10 mM Mg^2+): around 5 fold
- change of fluorescence turn-on with increasing magnesium ([1]; magnesium from 1 to 20 mM): marked improvement in fluorescence turn-on
- fluorescence response to SET7/9 activity [2]: displayed a fluorescence response to SET7/9 activity
- Z′ score, substrate screen [3]: 0.74
- Z′ score, inhibitor screen ([3]; 300 μM sinefungin): 0.44

B2: cpSpinach2: circular permutant of the Spinach2 aptamer, SEQ ID NO: 93 (nucleic acid)
chain: GCAGCCTACTTGTTGAGTAGAGTGTGAGCTCCGTAACTAGTTACATCGCAAGATGTAACTGAATGAAATGGTGAAGGACGGGTCCAGTAGGCTGC
modifications: expressed or natural sequence
- cellular fluorescence activation over background [4]: 22 fold
- fold change in fluorescence between wild-type and MTAN knockout strain 2 ([5]; E. coli BL21* MTAN knockout strain 2): 1.4 ×
- fluorescence signal in ΔMTAN versus wild-type cells ([5]; E. coli BL21*, flow cytometry): no significant difference in signal
- time fluorescence readings remained stable [6]: up to 3 h
